Publication PMC7352350, “Molecular Interactions Stabilizing the Promatrix Metalloprotease-9·Serglycin Heteromer” (International Journal of Molecular Sciences, 2020)
One block for each binder: values may come before it.

Tests used:
Settings in all cases: both partners purified
[1] = biological target: T1, recombinant human His-tagged serglycin (human, UniProt P10124 28-158); experiment: peptide or protein array; 20-mer walks of the MMP-9 FnII module and HPX domain on cellulose, two-residue shift; 10 uL of 1 ng/uL Ht-SG in 10 mL blocking buffer, 1-4 h, room temperature; antibodies against SG
T1 construct: serglycin core protein, human, the tag stands instead of the signal peptide; no GAG chains; numbers count on: the mature protein (1-131); also called Ht-SG; SG core protein; source: bought: ProSpec (produced in Escherichia coli)
T1 sequence (looked up): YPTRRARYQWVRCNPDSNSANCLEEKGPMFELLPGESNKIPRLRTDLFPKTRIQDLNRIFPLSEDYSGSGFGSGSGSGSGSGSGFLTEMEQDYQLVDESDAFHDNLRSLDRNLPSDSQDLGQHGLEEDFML

[2] = biological target: T2, proMMP-9 purified from THP-1 cells (human (endogenous in THP-1), UniProt P14780 20-707); experiment: peptide or protein array; 20-mer walk of the SG core protein on cellulose, two-residue shift; 8.8 ul of 11.2 ug/mL proMMP-9 in 10 mL blocking buffer, 1-4 h, room temperature; antibody against MMP-9
T2 construct: matrix metalloprotease-9 proenzyme, human; pre domain cleaved off, the mature proenzyme is 20-707; the preparation holds a small amount of TIMP-1; monomer and reduction-sensitive homomultimer; also called pMMP-9; promatrix metalloprotease-9; source: purified from conditioned medium of PMA-stimulated THP-1 cells (Q-Sepharose pass-through, gelatin-Sepharose)

[3] = biological target: T3, recombinant full-length proMMP-9 (human, UniProt P14780 20-707); experiment: as above
T3 construct: matrix metalloprotease-9 proenzyme, human, full-length; pre domain cleaved off, the mature proenzyme is 20-707; also called rpMMP-9; source: Sf9, baculovirus, purified (gelatin-Sepharose)

[4] = biological target: T4, recombinant proMMP-9 lacking the HPX domain (human, UniProt P14780 20-515); experiment: as above
T4 construct: MMP-9 proenzyme, human; stop codon behind the codon for A515; the mature proenzyme starts at 20; also called rpMMP-9ΔHPX; proMMP-9ΔHPX; source: Sf9, baculovirus, purified (gelatin-Sepharose)

[5] = biological target: T2, proMMP-9 purified from THP-1 cells; experiment: as above; remark: listed apart in the source
Target sequence in this assay (P14780 20-707): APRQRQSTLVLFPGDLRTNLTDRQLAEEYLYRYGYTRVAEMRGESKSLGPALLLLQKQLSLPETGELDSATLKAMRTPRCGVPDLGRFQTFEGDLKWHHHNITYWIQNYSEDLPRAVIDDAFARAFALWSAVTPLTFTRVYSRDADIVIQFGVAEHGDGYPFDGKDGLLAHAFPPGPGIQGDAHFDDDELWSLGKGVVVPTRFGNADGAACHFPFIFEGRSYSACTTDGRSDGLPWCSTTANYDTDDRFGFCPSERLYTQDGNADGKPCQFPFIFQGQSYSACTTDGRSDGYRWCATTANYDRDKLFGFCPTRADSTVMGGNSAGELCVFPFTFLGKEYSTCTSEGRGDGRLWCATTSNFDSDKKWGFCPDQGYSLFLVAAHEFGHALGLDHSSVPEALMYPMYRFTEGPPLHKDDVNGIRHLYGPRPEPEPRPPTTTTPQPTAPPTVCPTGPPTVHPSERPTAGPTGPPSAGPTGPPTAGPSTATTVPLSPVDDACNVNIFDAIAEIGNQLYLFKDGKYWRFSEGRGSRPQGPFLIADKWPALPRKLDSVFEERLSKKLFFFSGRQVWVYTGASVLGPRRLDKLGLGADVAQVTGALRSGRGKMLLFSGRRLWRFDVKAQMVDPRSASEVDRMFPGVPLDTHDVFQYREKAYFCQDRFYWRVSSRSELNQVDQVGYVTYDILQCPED

[6] = biological target: T1, recombinant human His-tagged serglycin; experiment: peptide or protein array; mutated FnII and HPX 20-mer peptides on cellulose, incubated with Ht-SG; antibodies against SG

T4 sequence (P14780 20-515): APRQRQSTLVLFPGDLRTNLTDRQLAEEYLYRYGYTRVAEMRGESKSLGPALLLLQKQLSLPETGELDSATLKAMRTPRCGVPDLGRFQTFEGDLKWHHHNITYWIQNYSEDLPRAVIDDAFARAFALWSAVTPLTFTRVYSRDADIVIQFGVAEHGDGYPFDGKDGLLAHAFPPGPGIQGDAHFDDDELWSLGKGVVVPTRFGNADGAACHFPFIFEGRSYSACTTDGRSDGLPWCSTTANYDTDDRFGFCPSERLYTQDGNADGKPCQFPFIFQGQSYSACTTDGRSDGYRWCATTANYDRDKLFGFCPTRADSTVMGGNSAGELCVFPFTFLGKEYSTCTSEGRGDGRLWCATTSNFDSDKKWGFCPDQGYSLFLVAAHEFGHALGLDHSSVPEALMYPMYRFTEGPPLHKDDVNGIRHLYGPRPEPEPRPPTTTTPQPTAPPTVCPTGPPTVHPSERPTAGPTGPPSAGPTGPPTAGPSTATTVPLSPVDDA

B1: FnII peptide 15 (peptide, UniProt P14780 253-272, looked up)
peptide: LPWCSTTANYDTDDRFGFCP
notes: MMP-9 FnII module (A225-D390), spot 15 of the 20-mer walk with two-residue shift; source: synthetic peptide on a cellulose membrane
binding result [1]: binds

B2: SG peptide 51 (peptide, UniProt P10124 128-147, looked up)
peptide: AFHDNLRSLDRNLPSDSQDL
notes: serglycin core protein, spot 51 of the 20-mer walk with two-residue shift; numbers count on: the mature protein (1-131); source: synthetic peptide on a cellulose membrane
binding result [2]: binds

B3: SG peptide 24 (peptide, UniProt P10124 74-93, looked up)
peptide: LFPKTRIQDLNRIFPLSEDY
notes: serglycin core protein, spot 24 of the 20-mer walk with two-residue shift; numbers count on: the mature protein (1-131); source: synthetic peptide on a cellulose membrane
binding result [3]: binds | binding result [4]: binds | binding result [5]: binds

B4: SG peptide 23 (peptide, UniProt P10124 72-91, looked up)
peptide: TDLFPKTRIQDLNRIFPLSE
notes: serglycin core protein, spot 23 of the 20-mer walk with two-residue shift; numbers count on: the mature protein (1-131); source: synthetic peptide on a cellulose membrane
binding result [3]: binds | binding result [4]: binds | binding result [5]: binds

B5: SG peptide 26 (peptide, UniProt P10124 78-97, looked up)
peptide: TRIQDLNRIFPLSEDYSGSG
notes: serglycin core protein, spot 26 of the 20-mer walk with two-residue shift; numbers count on: the mature protein (1-131); source: synthetic peptide on a cellulose membrane
binding result [3]: binds | binding result [4]: binds | binding result [5]: binds

B6: FnII peptide 20 (peptide, UniProt P14780 263-282, looked up)
peptide: DTDDRFGFCPSERLYTQDGN
notes: MMP-9 FnII module (A225-D390), spot 20 of the 20-mer walk with two-residue shift; source: synthetic peptide on a cellulose membrane
binding result [1]: binds

B7: HPX peptide 71 (peptide, UniProt P14780 661-680, looked up)
peptide: THDVFQYREKAYFCQDRFYW
notes: MMP-9 HPX domain (F521-D707), spot 71 of the 20-mer walk with two-residue shift; source: synthetic peptide on a cellulose membrane
binding result [1]: binds

B8: HPX peptide 10 (peptide, UniProt P14780 539-558, looked up)
peptide: YWRFSEGRGSRPQGPFLIAD
notes: MMP-9 HPX domain (F521-D707), spot 10 of the 20-mer walk with two-residue shift; source: synthetic peptide on a cellulose membrane
binding result [1]: binds

B9: FnII peptide 13 (peptide, UniProt P14780 249-268, looked up)
peptide: RSDGLPWCSTTANYDTDDRF
notes: MMP-9 FnII module (A225-D390), spot 13 of the 20-mer walk with two-residue shift; source: synthetic peptide on a cellulose membrane
binding result [1]: binds

B10: HPX peptide 85 (peptide, UniProt P14780 688-707, looked up)
peptide: LNQVDQVGYVTYDILQCPED
notes: MMP-9 HPX domain (F521-D707), last spot (85) of the 20-mer walk; source: synthetic peptide on a cellulose membrane
binding result [1]: binds

B11: FnII peptide 18 (peptide, UniProt P14780 259-278, looked up)
peptide: TANYDTDDRFGFCPSERLYT
notes: MMP-9 FnII module (A225-D390), spot 18 of the 20-mer walk with two-residue shift; source: synthetic peptide on a cellulose membrane
binding result [1]: binds

B12: FnII peptide 22 (peptide, UniProt P14780 267-286, looked up)
peptide: RFGFCPSERLYTQDGNADGK
notes: MMP-9 FnII module (A225-D390), spot 22 of the 20-mer walk with two-residue shift; source: synthetic peptide on a cellulose membrane
binding result [1]: binds

B13: SG peptide 50 (peptide, UniProt P10124 126-145, looked up)
peptide: SDAFHDNLRSLDRNLPSDSQ
notes: serglycin core protein, spot 50 of the 20-mer walk with two-residue shift; numbers count on: the mature protein (1-131); source: synthetic peptide on a cellulose membrane
binding result [2]: binds

B14: FnII peptide 17 (peptide, UniProt P14780 257-276, looked up)
peptide: STTANYDTDDRFGFCPSERL
notes: MMP-9 FnII module (A225-D390), spot 17 of the 20-mer walk with two-residue shift; source: synthetic peptide on a cellulose membrane
binding result [1]: binds

B15: SG peptide 52 (peptide, UniProt P10124 130-149, looked up)
peptide: HDNLRSLDRNLPSDSQDLGQ
notes: serglycin core protein, spot 52 of the 20-mer walk with two-residue shift; numbers count on: the mature protein (1-131); source: synthetic peptide on a cellulose membrane
binding result [2]: binds

B16: HPX peptide 69 with Y672 mutated (peptide, UniProt P14780 657-676, looked up)
peptide: VPLDTHDVFQYREKAAFCQD
notes: MMP-9 HPX domain, mutated 20-mer of spot 69; source: synthetic peptide on a cellulose membrane
binding result [6]: binds

Second part, the binder after the results:

binding result [1]: binds
B17: HPX peptide 69 (peptide, UniProt P14780 657-676, looked up)
peptide: VPLDTHDVFQYREKAYFCQD
notes: MMP-9 HPX domain (F521-D707), spot 69 of the 20-mer walk with two-residue shift; source: synthetic peptide on a cellulose membrane

binding result [1]: binds
B18: FnII peptide 19 (peptide, UniProt P14780 261-280, looked up)
peptide: NYDTDDRFGFCPSERLYTQD
notes: MMP-9 FnII module (A225-D390), spot 19 of the 20-mer walk with two-residue shift; source: synthetic peptide on a cellulose membrane

binding result [6]: binds
B19: HPX peptide 41 with D609 mutated (peptide, UniProt P14780 601-620, looked up)
peptide: LDKLGLGAAVAQVTGALRSG
notes: MMP-9 HPX domain, mutated 20-mer of spot 41; source: synthetic peptide on a cellulose membrane

binding result [1]: binds
B20: HPX peptide 12 (peptide, UniProt P14780 543-562, looked up)
peptide: SEGRGSRPQGPFLIADKWPA
notes: MMP-9 HPX domain (F521-D707), spot 12 of the 20-mer walk with two-residue shift; source: synthetic peptide on a cellulose membrane

binding result [3]: binds | binding result [5]: binds
B21: SG peptide 21 (peptide, UniProt P10124 68-87, looked up)
peptide: PRLRTDLFPKTRIQDLNRIF
notes: serglycin core protein, spot 21 of the 20-mer walk with two-residue shift; numbers count on: the mature protein (1-131); source: synthetic peptide on a cellulose membrane

binding result [1]: binds
B22: HPX peptide 41 (peptide, UniProt P14780 601-620, looked up)
peptide: LDKLGLGADVAQVTGALRSG
notes: MMP-9 HPX domain (F521-D707), spot 41 of the 20-mer walk with two-residue shift; source: synthetic peptide on a cellulose membrane

binding result [1]: binds
B23: HPX peptide 18 (peptide, UniProt P14780 555-574, looked up)
peptide: LIADKWPALPRKLDSVFEER
notes: MMP-9 HPX domain (F521-D707), spot 18 of the 20-mer walk with two-residue shift; source: synthetic peptide on a cellulose membrane

binding result [1]: binds
B24: FnII peptide 21 (peptide, UniProt P14780 265-284, looked up)
peptide: DDRFGFCPSERLYTQDGNAD
notes: MMP-9 FnII module (A225-D390), spot 21 of the 20-mer walk with two-residue shift; source: synthetic peptide on a cellulose membrane
